We go through 33 molecules from patent US20040018971A1 (published 2004).

Broadly, the IC50 is the concentration needed to halve the response being measured.

One assay deals with HLA-A*1101 (human). Put plainly: inhibition of 125I-labelled probe peptide binding to purified HLA-A*1101, gel filtration; relative to standard peptide 940.06. (In general: Size exclusion chromatography separates by hydrodynamic size, large species first.)
The target of a further assay is HLA-B*5401 (human). Put plainly: competition vs 125I-labeled standard peptide, purified HLA.
The target of the next assay is HLA-B*5101 (human). The assay is described as above.
A further assay concerns the target HLA-B*3501 (human). The assay is described as above.
In a further assay the target is HLA-B*5301 (human). Described as above.
The target in the next assay is HLA-B*0702 (human). The assay is described as above.
Another assay deals with HLA-A*0301 (human). Put plainly: inhibition of 125I probe peptide binding to purified HLA.
In a further assay the target is HLA-A*3101 (human). Described as above.
In another assay the target is HLA-A*6801 (human). Described as above.

With QVCTGTDMK (also called HER2/neu 24-32) [HER2/neu A11 motif peptide, position 24, 9 amino acids], the relative binding ratio in the assay with HLA-A*1101 was 0.052 ratio (IC50 of standard peptide / IC50 of test peptide).
As for PLQRLRIVR [HER2/neu A11 motif peptide, position 95, 9 amino acids], the relative binding ratio with HLA-A*1101 was 0.0001 ratio (IC50 of standard peptide / IC50 of test peptide).
The same measure, in the same setting: then NIQEFAGCK [HER2/neu A11 motif peptide, position 360, 9 amino acids], with 0.0036 ratio (IC50 of standard peptide / IC50 of test peptide).

B1: Her2/neu.649.F1, 10-mer (peptide)
peptide: FPLTSIISAV
notes: 10-mer analog of the HER2/neu peptide starting at position 649; same label as the 9-mer in r40
Turning to B1, the IC50 with HLA-B*5401 came to 1.2 nM; with HLA-B*5101, 63 nM; in the assay with HLA-B*3501, 300 nM; with HLA-B*5301 it was 2910 nM; with HLA-B*0702, 220 nM.

B2: Her2/neu.649.F1I10 (peptide)
peptide: FPLTSIISAI
notes: 10-mer analog of the HER2/neu peptide starting at position 649
As for B2, the IC50 with HLA-B*5401 amounted to 3.3 nM; with HLA-B*5101 it was 26 nM; with HLA-B*3501, 327 nM; with HLA-B*5301 it was 194 nM; with HLA-B*0702, 229 nM.

B3: Her2/neu.669 (AA 9) (peptide)
peptide: VVFGILIKR
notes: synthetic peptide; the 9-mer and the 10-mer carry the same source label Her2/neu.669
As for B3, the values for the IC50 with HLA-A*0301, with HLA-A*3101 and in the assay with HLA-A*6801 were 100 nM, 13 nM and 4 nM, respectively.

B4: Her2/neu.760.F1, 9-mer (peptide)
peptide: FPKANKEIL
notes: 9-mer analog of the HER2/neu peptide starting at position 760; same label as the 8-mer in r52
In the case of B4, the IC50 is 77 nM in the assay with HLA-B*5401, 190 nM in the assay with HLA-B*5101, 4500 nM with HLA-B*3501 and 6.7 nM in the assay with HLA-B*0702.
Regarding PSGVKPDLSY (also called HER2/neu 601-610) [HER2/neu A11 motif peptide, position 601, 10 amino acids], the relative binding ratio with HLA-A*1101 is 0.0003 ratio (IC50 of standard peptide / IC50 of test peptide).
Regarding RTVCAGGCAR (synthetic peptide) [Her2/neu.217], the IC50 with HLA-A*0301 was 1620 nM; in the assay with HLA-A*3101, 40 nM; in the assay with HLA-A*6801 it was 320 nM.

B5: Her2/neu.706.F1, 10-mer (peptide)
peptide: FPNQAQMRIL
notes: 10-mer analog of the HER2/neu peptide starting at position 706; same label as the 9-mer in r49
For the molecule B5, the IC50 amounted to 31 nM with HLA-B*5401; 458 nM with HLA-B*5101; 200 nM in the assay with HLA-B*3501; 443 nM in the assay with HLA-B*5301; 81 nM in the assay with HLA-B*0702.

B6: Her2/neu.779.F1, 10-mer (peptide)
peptide: FPYVSRLLGI
notes: 10-mer analog of the HER2/neu peptide starting at position 779; same label as the 8-mer in r55
Turning to B6, the IC50 with HLA-B*5401 is 9.1 nM; in the assay with HLA-B*5101, 7.9 nM; in the assay with HLA-B*3501 it was 3600 nM; in the assay with HLA-B*5301, 358 nM; in the assay with HLA-B*0702 it was 112 nM.
Turning to QVRQVPLQR (also called HER2/neu 90-98) [HER2/neu A11 motif peptide, position 90, 9 amino acids], the relative binding ratio with HLA-A*1101 is 0.0005 ratio (IC50 of standard peptide / IC50 of test peptide).

B7: Her2/neu.701.F1 (peptide)
peptide: FPSGAMPNQI
notes: the label names only F1 though the C-terminus is I
In the case of B7, the IC50 with HLA-B*5401 came to 100 nM; in the assay with HLA-B*5101, 131 nM; with HLA-B*3501 it was 6550 nM; in the assay with HLA-B*5301, 775 nM; with HLA-B*0702 it was 229 nM.

B8: Her2/neu.706.F1, 9-mer (peptide)
peptide: FPNQAQMRI
notes: 9-mer analog of the HER2/neu peptide starting at position 706; same label as the 10-mer in r51
B8: the IC50 with HLA-B*5401 was 4.5 nM; with HLA-B*3501, 108 nM; in the assay with HLA-B*5301, 18 nM; with HLA-B*0702, 68 nM.

B9: Her2/neu.698.F1 (peptide)
peptide: FPLTPSGAM
notes: 9-mer analog of the HER2/neu peptide starting at position 698
Consider B9, for which the IC50 worked out at 91 nM in the assay with HLA-B*5401; 71 nM with HLA-B*5101; 16 nM with HLA-B*3501; 1520 nM with HLA-B*5301; 2 nM with HLA-B*0702.
On to QLVTQLMPY (also called HER2/neu 795-803) [HER2/neu A11 motif peptide, position 795, 9 amino acids], for which the relative binding ratio with HLA-A*1101 was 0.0039 ratio (IC50 of standard peptide / IC50 of test peptide).

B10: Her2/neu.801.I11 (peptide)
peptide: MPYGCLLDHVI
notes: 11-mer analog of the HER2/neu peptide starting at position 801
Take B10: the IC50 with HLA-B*5401 turned out to be 7.7 nM; in the assay with HLA-B*5101, 2.4 nM; with HLA-B*3501, 4.2 nM; with HLA-B*5301, 1.9 nM; in the assay with HLA-B*0702 it was 66 nM.
On to PLTCSPQPEY [HER2/neu A11 motif peptide, position 1130, 10 amino acids], for which the relative binding ratio with HLA-A*1101 was 0.0002 ratio (IC50 of standard peptide / IC50 of test peptide).
In the case of PASPLDSTFY (also called HER2/neu 996-1005) [HER2/neu A11 motif peptide, position 996, 10 amino acids], in the assay with HLA-A*1101, the relative binding ratio is 0.0001 ratio (IC50 of standard peptide / IC50 of test peptide).

B11: Her2/neu.884.F1I8 (peptide)
peptide: FPIKWMAI
notes: 8-mer analog of the HER2/neu peptide starting at position 884
For B11, the IC50 turned out to be 33 nM with HLA-B*5401; 122 nM with HLA-B*5101; 1140 nM in the assay with HLA-B*3501; 930 nM with HLA-B*5301; 22 nM with HLA-B*0702.

B12: Her2/neu.884.F1 (peptide)
peptide: FPIKWMAL
notes: 8-mer analog of the HER2/neu peptide starting at position 884; also called FPIKWMAL
As for B12, the IC50 was 40 nM with HLA-B*5401; 306 nM in the assay with HLA-B*5101; 248 nM with HLA-B*3501; 547 nM with HLA-B*5301; 0.6 nM in the assay with HLA-B*0702.
Consider PTHDPSPLQR (also called HER2/neu 1102-1111) [HER2/neu A11 motif peptide, position 1102, 10 amino acids], for which, in the assay with HLA-A*1101, the relative binding ratio is 0.0001 ratio (IC50 of standard peptide / IC50 of test peptide).

B13: Her2/neu.706.I11 (peptide)
peptide: MPNQAQMRILI
notes: 11-mer analog of the HER2/neu peptide starting at position 706
Turning to B13, the IC50 with HLA-B*5401 turned out to be 303 nM; with HLA-B*5101, 37 nM; in the assay with HLA-B*3501 it was 1800 nM; with HLA-B*5301, 12 nM; with HLA-B*0702 it was 344 nM.

B14: Her2/neu.642.F1 (peptide)
peptide: FPAEQRASPL
notes: 10-mer analog of the HER2/neu peptide starting at position 642
Consider B14, for which the IC50 with HLA-B*5401 was determined as 286 nM; with HLA-B*5101 it was 859 nM; in the assay with HLA-B*3501, 248 nM; with HLA-B*5301, 8460 nM; in the assay with HLA-B*0702, 1.4 nM.
Regarding QALLHTANR (also called HER2/neu 491-499) [HER2/neu A11 motif peptide, position 491, 9 amino acids], the relative binding ratio with HLA-A*1101 was 0.001 ratio (IC50 of standard peptide / IC50 of test peptide).

B15: HER2/neu A11 motif peptide, position 745, 10 amino acids (peptide)
peptide: NVKIPVAIKV
notes: Built as this row prints it (length 10); also called HER2/neu 745-754
B15: the relative binding ratio in the assay with HLA-A*1101 is 0.0007 ratio (IC50 of standard peptide / IC50 of test peptide).
Same read-out and setting: then NIQEFAGCKK (also called HER2/neu 360-369) [HER2/neu A11 motif peptide, position 360, 10 amino acids], with 0.0056 ratio (IC50 of standard peptide / IC50 of test peptide); and PLPSETDGY (also called HER2/neu 1119-1127) [HER2/neu A11 motif peptide, position 1119, 9 amino acids], with 0.0002 ratio (IC50 of standard peptide / IC50 of test peptide).
As for PAGATLERPK (also called HER2/neu 1162-1171) [HER2/neu A11 motif peptide, position 1162, 10 amino acids], in the assay with HLA-A*1101, the relative binding ratio is -0.0002 ratio (IC50 of standard peptide / IC50 of test peptide).

B16: Her2/neu.779.F1, 8-mer (peptide)
peptide: FPYVSRLL
notes: 8-mer analog of the HER2/neu peptide starting at position 779; same label as the 10-mer in r56
Consider B16, for which the IC50 was 172 nM with HLA-B*5401; 6.9 nM with HLA-B*5101; 600 nM with HLA-B*3501; 581 nM with HLA-B*5301; 61 nM with HLA-B*0702.

B17: Her2/neu.649.F1I9 (peptide)
peptide: FPLTSIISI
notes: 9-mer analog of the HER2/neu peptide starting at position 649
Consider B17, for which the IC50 was 1.5 nM in the assay with HLA-B*5401, 118 nM in the assay with HLA-B*3501, 28 nM with HLA-B*5301 and 212 nM with HLA-B*0702.

B18: Her2/neu.649.F1, 9-mer (peptide)
peptide: FPLTSIISA
notes: 9-mer analog of the HER2/neu peptide starting at position 649; same label as the 10-mer in r43
As to B18, the IC50 with HLA-B*5401 was determined as 1.4 nM; with HLA-B*5101, 663 nM; with HLA-B*3501, 21 nM; with HLA-B*5301 it was 3000 nM; in the assay with HLA-B*0702, 290 nM.

B19: Her2/neu.649.F1I11 (peptide)
peptide: FPLTSIISAVI
notes: 11-mer analog of the HER2/neu peptide starting at position 649
Consider B19, for which the IC50 with HLA-B*5401 amounted to 2.2 nM; with HLA-B*5101, 4.6 nM; with HLA-B*3501, 96 nM; with HLA-B*5301, 66 nM.
